Measured values reported in the Human Domainome abundance scans (Beltran et al. 2025).
± gives the uncertainty stated by the source.

B1: LIM and senescent cell antigen-like-containing domain protein 2, residues 13 to 71; numbered along this chain, Q7Z4I7 (parent)
chain: AVCQRCQARFSPAERIVNSNGELYHEHCFVCAQCFRPFPEGLFYEFEGRKYCEHDFQML

Variants of: B1
Assay: abundance fitness (aPCA) (normalised: wild type 0, dead -1); higher = more abundant; growth selection in yeast, the domain comes from the species named
Conditions: Homo sapiens

Variant	abundance fitness
N18E	-0.116 ± 0.094
N18K	-0.411 ± 0.14
N18T	-0.312 ± 0.096
N18F	0.11 ± 0.18
N18A	-0.227 ± 0.092
N18R	-0.202 ± 0.072
N18D	-0.068 ± 0.28
N18Y	-0.603 ± 0.23
N18G	-0.15 ± 0.11
N18L	-0.615 ± 0.071
N18S	-0.333 ± 0.07
N18V	-0.316 ± 0.08
N18M	-0.323 ± 0.12
N18Q	-0.06 ± 0.084
N18C	-0.089 ± 0.16
N18I	-0.244 ± 0.17
N18H	-0.281 ± 0.2
N18P	-0.191 ± 0.086
N18W	-0.639 ± 0.12
E14P	-0.577 ± 0.11
E14V	-0.184 ± 0.067
E14F	-0.658 ± 0.17
E14L	-0.512 ± 0.07
E14D	-0.075 ± 0.11

Variant	abundance fitness
E14W	-0.428 ± 0.087
E14Q	-0.106 ± 0.079
E14T	-0.242 ± 0.082
E14I	-0.611 ± 0.19
E14M	-0.41 ± 0.097
E14G	-0.05 ± 0.076
E14S	-0.034 ± 0.064
E14A	0.048 ± 0.076
E14N	-0.343 ± 0.14
E14H	-0.451 ± 0.27
E14C	-0.156 ± 0.092
E14R	-0.651 ± 0.071
E14Y	-0.224 ± 0.12
A13R	-0.211 ± 0.059
A13Y	-0.207 ± 0.12
A13T	0.035 ± 0.071
A13W	-0.372 ± 0.083
A13F	-0.781 ± 0.15
A13G	-0.182 ± 0.083
A13K	0.053 ± 0.072
A13L	-0.039 ± 0.055
A13I	-0.581 ± 0.17
A13P	-0.076 ± 0.078
A13H	0.017 ± 0.13

Variant	abundance fitness
A13N	0.186 ± 0.13
A13V	-0.327 ± 0.081
A13M	-0.22 ± 0.1
A13D	0.142 ± 0.16
A13E	0.078 ± 0.096
A13C	-0.176 ± 0.071
A13Q	-0.245 ± 0.11
Q4K	-0.007 ± 0.091
Q4S	0.029 ± 0.064
Q4H	0.035 ± 0.13
Q4P	-0.145 ± 0.11
Q4Y	0.086 ± 0.11
Q4W	-0.528 ± 0.1
Q4M	0.209 ± 0.1
Q4N	0.679 ± 0.16
Q4E	-0.133 ± 0.082
Q4C	0.065 ± 0.11
Q4R	-0.073 ± 0.064
Q4L	0.184 ± 0.059
Q4D	0.357 ± 0.11
Q4F	-0.161 ± 0.17
Q4G	-0.127 ± 0.071
Q4T	0.051 ± 0.078
Q4V	-0.228 ± 0.068

Variant	abundance fitness
Q4I	-0.216 ± 0.18
S11I	-0.248 ± 0.12
S11F	-0.227 ± 0.12
S11K	-0.055 ± 0.074
S11E	0.019 ± 0.078
S11L	-0.053 ± 0.05
S11C	-0.155 ± 0.13
S11A	0.137 ± 0.063
S11V	-0.227 ± 0.055
S11Y	-0.18 ± 0.15
S11W	-0.131 ± 0.08
S11H	-0.407 ± 0.16
S11G	-0.011 ± 0.063
S11Q	-0.075 ± 0.08
S11N	-0.105 ± 0.12
S11M	0.004 ± 0.067
S11R	-0.175 ± 0.061
S11D	0.102 ± 0.091
S11T	-0.087 ± 0.067
A8F	-0.039 ± 0.065
A8N	-0.03 ± 0.08
A8L	0.064 ± 0.038
A8K	0.166 ± 0.053
A8W	0.109 ± 0.051

Variant	abundance fitness
A8V	0.071 ± 0.061
A8S	0.076 ± 0.045
A8E	0.327 ± 0.077
A8G	0.184 ± 0.061
A8P	-0.797 ± 0.091
A8R	0.181 ± 0.041
A8T	0.015 ± 0.054
A8Q	0.147 ± 0.061
A8M	0.151 ± 0.062
A8H	-0.041 ± 0.1
A8C	0.03 ± 0.067
A8I	0.073 ± 0.073
A8D	-0.119 ± 0.11
P12M	0.014 ± 0.09
P12S	0.014 ± 0.061
P12Q	-0.126 ± 0.09
P12C	0.188 ± 0.096
P12D	0.145 ± 0.22
P12E	0.035 ± 0.12
P12F	-0.036 ± 0.13
P12R	-0.212 ± 0.069
P12H	0.186 ± 0.22
P12Y	-0.093 ± 0.23
P12L	-0.059 ± 0.055

Variant	abundance fitness
P12N	-0.109 ± 0.49
P12G	-0.047 ± 0.064
P12A	0.067 ± 0.063
P12I	0.045 ± 0.081
P12T	0.003 ± 0.075
V2R	-0.002 ± 0.082
V2H	-0.238 ± 0.17
V2P	-0.274 ± 0.093
V2W	-0.546 ± 0.24
V2S	-0.445 ± 0.11
V2K	0.018 ± 0.14
V2N	-0.139 ± 0.13
V2F	-0.324 ± 0.11
V2L	-0.144 ± 0.062
V2Y	-0.097 ± 0.11
V2G	0.129 ± 0.11
V2D	-0.128 ± 0.16
V2A	-0.53 ± 0.13
V2E	-0.081 ± 0.093
V2C	-0.303 ± 0.14
V2M	0.093 ± 0.088
V2I	0.019 ± 0.1
V2T	0.011 ± 0.098
A1G	-0.135 ± 0.081

Variant	abundance fitness
A1T	0.176 ± 0.16
A1S	0.002 ± 0.12
A1N	-0.481 ± 0.41
A1D	-0.256 ± 0.21
A1P	-0.739 ± 0.32
A1K	0.066 ± 0.15
A1Q	-0.313 ± 0.18
A1W	-0.327 ± 0.47
A1V	-0.058 ± 0.069
A1L	-0.149 ± 0.15
A1R	-0.573 ± 0.22
A1E	0.161 ± 0.11
F10C	-0.139 ± 0.086
F10M	-0.002 ± 0.084
F10Y	-0.359 ± 0.1
F10W	-0.523 ± 0.1
F10N	-0.607 ± 0.19
F10T	-0.093 ± 0.068
F10Q	-0.707 ± 0.1
F10L	0.05 ± 0.049
F10H	-0.343 ± 0.16
F10I	0.022 ± 0.1
F10A	-0.389 ± 0.1
F10R	-0.601 ± 0.081

Variant	abundance fitness
F10D	-1.05 ± 0.24
F10S	-0.475 ± 0.07
F10P	-0.304 ± 0.093
F10K	-0.548 ± 0.1
S19W	-0.16 ± 0.085
S19F	-0.22 ± 0.13
S19L	-0.132 ± 0.071
S19D	0.058 ± 0.11
S19C	-0.117 ± 0.096
S19R	0.113 ± 0.063
S19I	-0.151 ± 0.1
S19K	-0.189 ± 0.12
S19T	-0.064 ± 0.076
S19Q	-0.068 ± 0.094
S19V	-0.187 ± 0.074
S19Y	-0.455 ± 0.15
S19A	-0.106 ± 0.073
S19E	-0.015 ± 0.097
S19G	0.015 ± 0.07
S19H	-0.19 ± 0.12
S19P	-0.29 ± 0.12
N20F	-0.359 ± 0.17
N20G	0.084 ± 0.065
N20D	0.313 ± 0.15

Variant	abundance fitness
N20E	-0.282 ± 0.11
N20A	-0.005 ± 0.087
N20C	-0.038 ± 0.1
C3Q	-1.33 ± 0.32
C3R	-1.21 ± 0.18
C3I	-1.25 ± 0.35
C3W	-0.42 ± 0.13
C3L	-0.705 ± 0.088
C3K	-1.08 ± 0.23
C3S	-0.832 ± 0.11
C3N	-0.687 ± 0.13
C3A	-0.682 ± 0.12
C3M	-0.843 ± 0.14
C3T	-1.22 ± 0.26
C3G	-0.499 ± 0.083
C3H	-1 ± 0.23
C3Y	-0.887 ± 0.18
C3F	-1.11 ± 0.25
C3D	-0.894 ± 0.24
C3E	-0.468 ± 0.17
Q7L	0.068 ± 0.04
Q7P	-0.802 ± 0.078
Q7D	-0.54 ± 0.11
Q7A	0.057 ± 0.061

Variant	abundance fitness
Q7I	-0.231 ± 0.061
Q7E	-0.668 ± 0.082
Q7S	-0.067 ± 0.042
Q7V	-0.121 ± 0.05
Q7T	0.156 ± 0.051
Q7M	0.025 ± 0.053
Q7Y	-0.11 ± 0.072
Q7W	0.007 ± 0.052
Q7F	-0.083 ± 0.064
Q7C	-0.194 ± 0.062
Q7K	-0.832 ± 0.12
Q7G	0.05 ± 0.053
Q7H	0.003 ± 0.068
Q7N	-0.849 ± 0.12
R5V	0.119 ± 0.061
R5N	-0.081 ± 0.13
R5W	-0.184 ± 0.081
R5Q	0.066 ± 0.073
R5I	0.078 ± 0.14
R5D	0.104 ± 0.12
R5H	0.069 ± 0.15
R5Y	0.29 ± 0.11
R5C	-0.379 ± 0.2
R5P	-0.625 ± 0.15

Variant	abundance fitness
R5G	0.231 ± 0.07
R5K	0.052 ± 0.082
R5F	-0.347 ± 0.15
R5A	0.186 ± 0.079
R5S	0.209 ± 0.062
R5E	0.037 ± 0.077
R5M	0.129 ± 0.077
R15C	-0.198 ± 0.072
R15W	-0.595 ± 0.085
R15S	0.098 ± 0.045
R15N	-0.184 ± 0.1
R15Y	-0.153 ± 0.083
R15M	-0.069 ± 0.076
R15G	-0.144 ± 0.054
R15P	-0.03 ± 0.076
R15E	0.01 ± 0.069
R15T	0.037 ± 0.06
R15H	-0.168 ± 0.1
R15Q	-0.021 ± 0.065
R15D	-0.009 ± 0.078
R15A	-0.178 ± 0.06
R15L	-0.255 ± 0.049
R15V	-0.107 ± 0.05
R15K	0.147 ± 0.075

Variant	abundance fitness
R15F	-0.467 ± 0.085
R15I	-0.017 ± 0.067
C6H	-1.08 ± 0.31
C6E	-0.968 ± 0.24
C6Q	-0.878 ± 0.16
C6I	-1.16 ± 0.36
C6F	-0.677 ± 0.12
C6D	-1.03 ± 0.29
C6N	-0.679 ± 0.15
C6S	-0.804 ± 0.084
C6W	-0.769 ± 0.095
C6T	-0.935 ± 0.16
C6G	-0.757 ± 0.1
C6M	-0.34 ± 0.098
C6K	-0.469 ± 0.11
C6A	-0.84 ± 0.18
C6R	-0.544 ± 0.065
C6P	-0.896 ± 0.14
C6Y	-0.732 ± 0.16
I16A	-0.1 ± 0.058
I16R	-0.114 ± 0.048
I16C	-0.069 ± 0.078
I16E	-0.341 ± 0.13
I16T	0.07 ± 0.051

Variant	abundance fitness
I16M	0.026 ± 0.055
I16K	0.098 ± 0.057
I16Y	-0.2 ± 0.082
I16S	-0.04 ± 0.043
I16D	-0.267 ± 0.091
I16Q	-0.069 ± 0.061
I16G	-0.178 ± 0.085
I16N	-0.174 ± 0.065
I16L	-0.023 ± 0.042
I16V	-0.194 ± 0.059
I16P	-0.104 ± 0.056
I16W	-0.146 ± 0.063
R9V	-0.019 ± 0.063
R9H	-0.047 ± 0.096
R9Q	0.039 ± 0.089
R9E	-0.084 ± 0.089
R9I	-0.039 ± 0.14
R9G	0.01 ± 0.07
R9M	-0.075 ± 0.074
R9C	-0.164 ± 0.11
R9F	-0.408 ± 0.12
R9P	0.051 ± 0.068
R9N	-0.135 ± 0.11
R9S	0.212 ± 0.066

Variant	abundance fitness
R9L	-0.122 ± 0.052
R9Y	-0.292 ± 0.1
R9W	-0.034 ± 0.079
R9D	-0.019 ± 0.11
R9A	-0.104 ± 0.076
R9T	-0.019 ± 0.068
V17G	-0.372 ± 0.079
V17W	-0.492 ± 0.077
V17R	-0.117 ± 0.049
V17D	-0.298 ± 0.24
V17P	-0.727 ± 0.11
V17K	0.03 ± 0.1
V17M	-0.248 ± 0.085
V17F	-0.019 ± 0.095
V17T	-0.048 ± 0.068
V17E	-0.251 ± 0.087
V17Y	-0.262 ± 0.14
V17C	-0.298 ± 0.13
V17H	0.01 ± 0.12
V17I	0.009 ± 0.12
V17L	-0.003 ± 0.053
V17N	-0.147 ± 0.14
